From PMC11577023

Key:
Experiment in all cases: […] (pH 7.4), 0.5 mL/min; […]
[1] = target: rTET-NA derived from A/Michigan/45/2015 N1 (not stated | influenza A virus A/Michigan/45/2015 (H1N1))
[2] = target: rTET-NA derived from A/Singapore/INFIMH-16-0019/2016 N2 (not stated | influenza A virus A/Singapore/INFIMH-16-0019/2016 (H3N2))
[3] = target: rTET-NA derived from B/Colorado/06/2017 (B/Victoria/2/87-like lineage) (not stated | influenza B virus B/Colorado/06/2017 (B/Victoria/2/87-like lineage))
[4] = target: rTET-NA derived from B/Phuket/3073/2013 (B/Yamagata/16/88-like lineage) (not stated | influenza B virus B/Phuket/3073/2013 (B/Yamagata/16/88-like lineage))

rTET-NA derived from A/Michigan/45/2015 N1 (enzyme)
stoichiometry N [1]: 4

rTET-NA derived from A/Singapore/INFIMH-16-0019/2016 N2 (enzyme)
stoichiometry N [2]: 4

rTET-NA derived from B/Colorado/06/2017 (B/Victoria/2/87-like lineage) (enzyme)
stoichiometry N [3]: 4

rTET-NA derived from B/Phuket/3073/2013 (B/Yamagata/16/88-like lineage) (enzyme)
stoichiometry N [4]: 4
